# Patent US20100137420
# Tests used:
# [1] = target: cathepsin B (from THP-1 cell lysates) (UniProt P07858)
# Chain of cathepsin D (chain, as listed by the source): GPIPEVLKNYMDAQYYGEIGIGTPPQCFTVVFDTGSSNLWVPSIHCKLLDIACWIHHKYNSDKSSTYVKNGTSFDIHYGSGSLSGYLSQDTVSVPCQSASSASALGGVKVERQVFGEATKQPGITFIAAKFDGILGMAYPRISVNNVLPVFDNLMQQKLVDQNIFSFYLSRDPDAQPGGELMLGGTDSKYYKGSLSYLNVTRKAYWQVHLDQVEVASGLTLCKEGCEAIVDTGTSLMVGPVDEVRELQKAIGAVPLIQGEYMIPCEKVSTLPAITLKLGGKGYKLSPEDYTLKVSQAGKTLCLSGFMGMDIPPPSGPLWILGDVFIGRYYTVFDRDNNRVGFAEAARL
# Chain of recombinant cystatin C (chain, as listed by the source): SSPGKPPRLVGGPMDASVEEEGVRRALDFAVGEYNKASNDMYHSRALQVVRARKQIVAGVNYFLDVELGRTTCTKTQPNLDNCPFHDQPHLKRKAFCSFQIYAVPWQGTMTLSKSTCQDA
substance,measurement,setting,value
cathepsin D,cathepsin B activity (fluorogenic Ac-Arg-Arg-AFC assay),[1],Cathepsin D and MMP-2 alone had no effect on cathepsin B activity
same,cleavage of recombinant cystatin C,recombinant cystatin C,"cathepsin D cleaved cystatin C at four different sites, and yielded a 12.5 kD fragment following cleavage from the C terminal region"
